Sequences and labels used below:
B1: His-tagged full-length N-MYC (natural protein, human, UniProt P04198 1-464, looked up)
chain: MPSCSTSTMPGMICKNPDLEFDSLQPCFYPDEDDFYFGGPDSTPPGEDIWKKFELLPTPPLSPSRGFAEHSSEPPSWVTEMLLENELWGSPAEEDAFGLGGLGGLTPNPVILQDCMWSGFSAREKLERAVSEKLQHGRGPPTAGSTAQSPGAGAASPAGRGHGGAAGAGRAGAALPAELAHPAAECVDPAVVFPFPVNKREPAPVPAAPASAPAAGPAVASGAGIAAPAGAPGVAPPRPGGRQTSGGDHKALSTSGEDTLSDSDDEDDEEEDEEEEIDVVTVEKRRSSSNTKAVTTFTITVRPKNAALGPGRAQSSELILKRCLPIHQQHNYAAPSPYVESEDAPPQKKIKSEASPRPLKSVIPPKAKSLSPRNSDSEDSERRRNHNILERQRRNDLRSSFLTLRDHVPELVKNEKAAKVVILKKATEYVHSLQAEEHQLLLEKEKLQARQQQLLKKIEHARTC
notes: N-MYC, human, full length; source: bought: Signalway (SAB Signalway Antibody), Cat# AP72694
B2: Lon N-terminal domain peptide (aa 1-245) (domain or fragment, E. coli, UniProt P0A9M0 1-245, looked up)
chain: MNPERSERIEIPVLPLRDVVVYPHMVIPLFVGREKSIRCLEAAMDHDKKIMLVAQKEASTDEPGVNDLFTVGTVASILQMLKLPDGTVKVLVEGLQRARISALSDNGEHFSAKAEYLESPTIDEREQEVLVRTAISQFEGYIKLNKKIPPEVLTSLNSIDDPARLADTIAAHMPLKLADKQSVLEMSDVNERLEYLMAMMESEIDLLQVEKRIRNRVKKQMEKSQREYYLNEQMKAIQKELGEMD
notes: Lon protease, E. coli, UniProt P0A9M0, N-terminal domain, aa 1-245; also called NTD; NTD peptide; source: E. coli BL21 (DE3), purified (Strep-Tactin Sepharose)

Experiment in all cases: SPR; Biacore X100; His-tagged ligand (~0.2 µM) captured on Ni-charged Sensor Chip NTA; Lon protein or domain injected at five dilutions; 25 °C, 30 µL/min; running buffer as printed 0.1 M HEPES, 1.5 M NaCl, 0.03 M EDTA, 0.5% v/v Surfactant P20; reference cell without nickel; 1:1 Langmuir fit
Common to all, as to settings: both partners purified
Background: Surface plasmon resonance follows binding to a sensor surface in real time, without labels.

The target in experiment [1] is T1, recombinant Escherichia coli Lon protease (aa 1-778) (E. coli, UniProt P0A9M0 1-778).
T1 construct: Lon protease, E. coli, UniProt P0A9M0, aa 1-778 as printed; Gene synthesised (GenScript) and cloned in a pASK-63 A+ vector (IBA); also called rLon; full-length Lon; source: E. coli BL21 (DE3), purified (Strep-Tactin Sepharose)

The target in experiment [2] is B1.
Experiment [3] concerns the target T2, His-tagged full-length c-MYC (human, UniProt P01106-1 1-439).
T2 construct: c-MYC, human, full length; see the vendor's catalogue entry; source: bought: Cusabio, CSB-EP015270HU

Bounds are passed on as bounds.

T2 sequence (P01106 16-454): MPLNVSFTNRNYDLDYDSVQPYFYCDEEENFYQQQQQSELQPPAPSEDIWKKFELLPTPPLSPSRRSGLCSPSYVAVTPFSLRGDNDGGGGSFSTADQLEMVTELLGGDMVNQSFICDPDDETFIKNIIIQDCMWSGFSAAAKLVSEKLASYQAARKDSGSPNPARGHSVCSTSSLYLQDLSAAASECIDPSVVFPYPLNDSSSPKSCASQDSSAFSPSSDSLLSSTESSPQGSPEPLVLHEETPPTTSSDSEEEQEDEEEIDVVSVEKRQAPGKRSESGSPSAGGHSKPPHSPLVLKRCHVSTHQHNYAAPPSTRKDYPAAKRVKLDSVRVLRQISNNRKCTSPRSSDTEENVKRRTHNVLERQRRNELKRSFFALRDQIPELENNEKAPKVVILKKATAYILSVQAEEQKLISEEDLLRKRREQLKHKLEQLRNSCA

As for B1, the binding result in experiment [1] is “binds”.
Regarding B2, the Kd in experiment [2] and in experiment [3] was less than 1 µM in each case.

As a reminder, the Kd is a measure of binding affinity in units of concentration. Read a high Kd as lower affinity.

The record behind these values is article PMC11861601, “Multitarget mechanism of MYC inhibition by the bacterial lon protease in disease” (Scientific Reports, 2025).
